From patent US20220251522

Target: T1, PoSP:SGSH^OPT:His
T1 chain: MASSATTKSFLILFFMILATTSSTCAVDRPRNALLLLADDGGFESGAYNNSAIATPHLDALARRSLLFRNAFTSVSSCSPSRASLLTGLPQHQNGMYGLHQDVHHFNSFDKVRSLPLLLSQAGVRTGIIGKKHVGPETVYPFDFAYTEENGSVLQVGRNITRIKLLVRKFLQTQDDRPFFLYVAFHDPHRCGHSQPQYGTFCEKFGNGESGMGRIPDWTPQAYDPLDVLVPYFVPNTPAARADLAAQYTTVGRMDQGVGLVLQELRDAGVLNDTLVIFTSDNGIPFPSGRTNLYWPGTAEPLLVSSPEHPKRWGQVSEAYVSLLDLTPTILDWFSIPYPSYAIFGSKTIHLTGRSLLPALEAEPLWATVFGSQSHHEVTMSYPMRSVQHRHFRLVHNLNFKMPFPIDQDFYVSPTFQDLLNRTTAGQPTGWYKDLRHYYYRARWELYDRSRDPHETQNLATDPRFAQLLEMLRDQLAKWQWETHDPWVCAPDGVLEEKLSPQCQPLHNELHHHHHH

B1: PoSP:SUMF1^OPT:His:KDEL (protein)
chain: MASSATTKSFLILFFMILATTSSTCAVDSQEAGTGAGAGSLAGSCGCGTPQRPGAHGSSAAAHRYSREANAPGPVPGERQLAHSKMVPIPAGVFTMGTDDPQIKQDGEAPARRVTIDAFYMDAYEVSNTEFEKFVNSTGYLTEAEKFGDSFVFEGMLSEQVKTNIQQAVAAAPWWLPVKGANWRHPEGPDSTILHRPDHPVLHVSWNDAVAYCTWAGKRLPTEAEWEYSCRGGLHNRLFPWGNKLQPKGQHYANIWQGEFPVTNTGEDGFQGTAPVDAFPPNGYGLYNIVGNAWEWTSDWWTVHHSVEETLNPKGPPSGKDRVKKGGSYMCHRSYCYRYRCAARSQNTPDSSASNLGFRCAADRLPTMDHHHHHHKDEL
Question: How did the sulfamidase enzymatic activity turn out when B1 was run?
Answer: plant-made SGSH (S4 and S12) were enzymatically active only when SUMF1 was co-expressed
